Data on one substance can be found in PMC8261802.

Usually stoichiometry N stands for the number of molecules, sites or subunits per partner or assembly.

Experiment [1] concerns the target PEDV/S(1–1320) + CMP + Tags (porcine epidemic diarrhea virus (PEDV), strain 83P-5 | chicken). Put plainly: SEC; Superose 6 increase 10/300 GL in 1 x PBS; markers thyroglobulin 669 kDa, ferritin 440 kDa, aldolase 158 kDa. In general terms: In gel filtration, larger molecules generally elute earlier.
For experiment [2] the target is unchanged. As to the kind of experiment: native gel or EMSA; Blue-native PAGE, 3 to 12% Bis-Tris NativePAGE gel, 115 min at 150 V, CBB stain; purified S protein.

On to PEDV/S(1–1320) + CMP + Tags, for which the stoichiometry N in experiment [1] and in experiment [2] was 3 each time.
